1 substance from publication PMC4355285 can be followed below.

Like-named read-outs stand apart in the source and are kept apart here.

The target of assay [1] is human CCL18 (human) (UniProt P55774). The experiment in a line: SAXS.
Assay [2] has the same target. The experiment in a line: SAXS. The source holds these as a separate data set.

Consider “human CCL18 (from UniProt P55774 21-89) (natural protein)”, for which, in the assay with human CCL18 (human) [1], the percent of the population as dimer was found to be 28%, the percent of the population as hexamer worked out at 24% and the percent of the population as monomer came to 48%. In the assay with human CCL18 (human) [2], the percent of the population as dimer amounted to 32%, the percent of the population as monomer was determined as 65% and the percent of the population as tetramer was determined as 3%.
